Data reported in paper PMC8749410.

Tests used:
[1] = molecular target: complement receptor 3 (CD11b/CD18) on primary human cervical epithelial (Pex) cells (human (endogenous in Pex cells)) (UniProt P11215); assay: fluorometric adherence assay on cells; virions 10 ng/mL p24 equivalent, 2 h on CHO or Pex cells; cells fixed, HIV immunolabelled (goat polyclonal LS-C103187, FITC secondary) and quantified against a standard curve of virus
[2] = molecular target: human recombinant I-domain of the CR3 alpha subunit CD11b (human); assay: SPR; Biacore S200; HIV virions flowed over immobilised rI-domain or rCR3; blank ethanolamine reference flow cell; mean Kd ± SD from a minimum of two technical repeats on each of two flow cells
[3] = molecular target: human recombinant complement receptor 3 (integrin αMβ2, CD11b/CD18) (human) (UniProt P11215); assay: as above
[4] = molecular target: complement receptor 3 (CD11b/CD18) on primary human cervical epithelial (Pex) cells (human (endogenous in Pex cells)) (UniProt P11215)
[5] = molecular target: human complement receptor 3 (CD11b/CD18) on CHO-CR3 cells (human) (UniProt P11215); assay: fluorometric adherence assay on cells; virions 10 ng/mL p24 equivalent, 2 h on CHO or Pex cells; cells fixed, HIV immunolabelled (goat polyclonal LS-C103187, FITC secondary) and quantified against a standard curve of virus

Substance	adherent virus (p24 HIV equivalent) [1]	percent of the inoculum adherent [1]	Kd [2]	Kd [3]	HIV-1 transcytosis across a polarized Pex cell monolayer in Transwells, no competimer; HIV p24 in the basal chamber as percent of the inoculum (10 ng/mL p24 equivalent) [4]	adherent virus (p24 HIV equivalent) [5]	percent of the inoculum adherent [5]
HIV-1 strain NL4-3 AD8 virions produced in HEK293T cells (envelope glycoprotein gp120/gp41 on the virion surface) (complex)	1.01 ng/mL	10%	239 nM	337 nM			
HIV-1 strain NL4-3 virions produced in HEK293T cells (envelope glycoprotein gp120/gp41 on the virion surface) (complex)			90.9 nM	192 nM			
HIV-1 transmitted founder strain REJO virions produced in HEK293T cells (envelope glycoprotein gp120/gp41 on the virion surface) (complex)			265 nM	90.3 nM			
HIV-1 transmitted founder strain RHPA virions produced in HEK293T cells (envelope glycoprotein gp120/gp41 on the virion surface) (complex)			912 nM	249 nM			
HIV-1 transmitted founder strain WITO virions produced in HEK293T cells (envelope glycoprotein gp120/gp41 on the virion surface) (complex)			298 nM	242 nM	4%		
HIV-1 transmitted founder strain WITO virions propagated in primary human PBMCs (envelope glycoprotein gp120/gp41 on the virion surface) (complex)			7.92 nM	10.6 nM			
HIV-1 transmitted founder strain WITO virions, producer cells not stated (envelope glycoprotein gp120/gp41 on the virion surface) (complex)	1.35 ng/mL	13%				2.4 ng/mL	24%
